# Data published in patent publication US20090304580A1.
# What was measured:
# [1] = target: PAM4 antigen (human pancreatic cancer mucin, CaPan1) (human); test: ELISA on target mucin antigen (FIG. 9)
# [2] = target: PAM4 antigen (human pancreatic cancer mucin, CaPan1) (human); test: radiolabelled TF10 mixed with mucin, size-exclusion analysis
# [3] = target: PAM4 antigen (human pancreatic cancer mucin, CaPan1) (human); test: size-exclusion elution of the 111In-IMP-288/TF10 complex with excess mucin
# [4] = target: IMP-288 di-HSG hapten-peptide, DOTA-D-Tyr-D-Lys(HSG)-D-Glu-D-Lys(HSG)-NH2; test: size-exclusion elution of 111In-IMP-288 with TF10
EC50 [1] [nM],immunoreactive fraction bound [2] [%],percent of TF10-bound peptide eluting at higher molecular weight with excess mucin [3] [%],percent bound [4] [%],Substance
1.83,,,,PAM4-F(ab')2 (antibody)
1.42,87,92,90,TF10 bispecific ([hPAM4]2 x h679) trimeric DNL construct (bispecific antibody)
